Blank lines part the entries; values can stand above or below the sequence they belong to.
Assays:
HLA-A*02:01 [1] = test: IEDB peptide-MHC binding, purified MHC/competitive/fluorescence; ≥ and ≤ were set here for values at or beyond the usual limits of such assays
HLA-A*24:02 = test: as above
HLA-B*44:02 [2] = test: IEDB peptide-MHC binding, purified MHC/competitive/radioactivity; filed as Kd, often an IC50 or EC50 that approximates it; ≥ and ≤ were set here for values at or beyond the usual limits of such assays
HLA-B*44:03 = test: as above
HLA-A*01:01 = test: IEDB peptide-MHC binding, purified MHC/direct/fluorescence; filed as Kd, often an IC50 or EC50 that approximates it; ≥ and ≤ were set here for values at or beyond the usual limits of such assays; details: source organism: Mycobacterium tuberculosis variant bovis BCG str. Pasteur 1173P2
HLA-A*03:01 = test: as above; details: source organism: Mycobacterium tuberculosis variant bovis BCG str. Pasteur 1173P2
HLA-A*11:01 = test: as above; details: source organism: Mycobacterium tuberculosis variant bovis BCG str. Pasteur 1173P2
HLA-A*31:01 = test: as above; details: source organism: Mycobacterium tuberculosis variant bovis BCG str. Pasteur 1173P2
HLA-A*69:01 = test: as above; details: source organism: Mycobacterium tuberculosis variant bovis BCG str. Pasteur 1173P2
HLA-B*08:01 = test: as above; details: source organism: Mycobacterium tuberculosis variant bovis BCG str. Pasteur 1173P2
HLA-B*18:01 = test: as above; details: source organism: Mycobacterium tuberculosis variant bovis BCG str. Pasteur 1173P2
HLA-B*27:05 = test: as above; details: source organism: Mycobacterium tuberculosis variant bovis BCG str. Pasteur 1173P2
HLA-B*40:01 [3] = test: as above; details: source organism: Mycobacterium tuberculosis variant bovis BCG str. Pasteur 1173P2
HLA-B*44:02 [4] = test: as above; details: source organism: Mycobacterium tuberculosis variant bovis BCG str. Pasteur 1173P2
HLA-B*46:01 = test: as above; details: source organism: Mycobacterium tuberculosis variant bovis BCG str. Pasteur 1173P2
HLA-B*48:01 = test: as above
HLA-B*57:01 = test: as above
HLA-B*58:01 = test: as above
HLA-A*30:01 = test: IEDB peptide-MHC binding, purified MHC/competitive/radioactivity; filed as Kd, often an IC50 or EC50 that approximates it; ≥ and ≤ were set here for values at or beyond the usual limits of such assays; details: source organism: Dengue virus 1 Brazil/97-11/1997
HLA-B*07:02 = test: as above; details: source organism: Dengue virus 1 Brazil/97-11/1997
HLA-A*02:01 [5] = test: as above
HLA-B*39:01 = test: IEDB peptide-MHC binding, purified MHC/competitive/fluorescence; filed as Kd, often an IC50 or EC50 that approximates it; ≥ and ≤ were set here for values at or beyond the usual limits of such assays
HLA-A*26:01 = test: as above; details: source organism: Yersinia pestis Nepal516
HLA-B*15:17 = test: IEDB peptide-MHC binding, purified MHC/direct/fluorescence; filed as Kd, often an IC50 or EC50 that approximates it; ≥ and ≤ were set here for values at or beyond the usual limits of such assays; details: source organism: Cryptosporidium parvum
HLA-B*40:01 [6] = test: IEDB peptide-MHC binding, purified MHC/competitive/radioactivity; filed as Kd, often an IC50 or EC50 that approximates it; ≥ and ≤ were set here for values at or beyond the usual limits of such assays
HLA-A*02:02 = test: as above; details: source organism: Homo sapiens
HLA-B*51:01 = test: IEDB peptide-MHC binding, purified MHC/competitive/fluorescence; filed as Kd, often an IC50 or EC50 that approximates it; ≥ and ≤ were set here for values at or beyond the usual limits of such assays; details: source organism: Burkholderia ambifaria AMMD
[7] = source organism: Vaccinia virus Copenhagen
[8] = source organism: Dengue virus 4 Philippines/H241/1956
[9] = source organism: Mycobacterium tuberculosis variant bovis BCG str. Pasteur 1173P2
[10] = source organism: Dengue virus 1 Singapore/S275/1990
[11] = source organism: Zaire ebolavirus
[12] = source organism: Sudan ebolavirus
[13] = source organism: Cryptosporidium parvum
[14] = source organism: Dengue virus 3 Martinique/1243/1999
[15] = source organism: Vaccinia virus WR

Sequence: LHSLSVETI
IC50 (HLA-A*02:01 [1]; [7]): ≥ 195000 nM
IC50 (HLA-A*24:02; [7]): 13000 nM

Sequence: LEENMEVEIW
Kd (HLA-B*44:02 [2]; [8]): 225 nM
Kd (HLA-B*44:03; [8]): 257 nM

Sequence: IIRVTSELL
Kd (HLA-A*01:01): ≥ 20000 nM
Kd (HLA-A*03:01): ≥ 20000 nM
Kd (HLA-A*11:01): ≥ 20000 nM
Kd (HLA-A*31:01): ≥ 20000 nM
Kd (HLA-A*69:01): ≥ 20000 nM
Kd (HLA-B*08:01): 13000 nM
Kd (HLA-B*18:01): ≥ 20000 nM
Kd (HLA-B*27:05): ≥ 20000 nM
Kd (HLA-B*40:01 [3]): ≥ 20000 nM
Kd (HLA-B*44:02 [4]): ≥ 20000 nM
Kd (HLA-B*46:01): ≥ 20000 nM
Kd (HLA-B*48:01; [9]): ≥ 20000 nM
Kd (HLA-B*57:01; [9]): ≥ 20000 nM
Kd (HLA-B*58:01; [9]): ≥ 20000 nM

Sequence: RSRWSRKML
Kd (HLA-A*30:01): 90.4 nM
Kd (HLA-B*07:02): 93.1 nM

Kd (HLA-A*02:01 [5]; source organism: Triticum aestivum): 5560 nM
Sequence: ELCCQHLWQI

Sequence: AEHSGASHNI
Kd (HLA-B*44:02 [2]; [10]): 78.6 nM
Kd (HLA-B*44:03; [10]): 502 nM

Sequence: EQLGVPLHL
Kd (HLA-B*48:01; source organism: Vibrio alginolyticus 12G01): 488 nM

Sequence: FFLWVIILF
IC50 (HLA-A*02:01 [1]; [11]): 7450 nM
IC50 (HLA-A*24:02; [11]): 53000 nM

Sequence: GIAWIPYFG
IC50 (HLA-A*02:01 [1]; [12]): 2720 nM
IC50 (HLA-A*24:02; [12]): ≥ 76200 nM

Kd (HLA-B*39:01; source organism: Shewanella putrefaciens CN-32): 2480 nM
Sequence: THEILWPSF

Sequence: YTYATRGIY
Kd (HLA-A*26:01): 6.2 nM

Sequence: RNTTPMMIQ
IC50 (HLA-A*24:02; source organism: Vaccinia virus): ≥ 70400 nM

Sequence: KACPPGFVF
Kd (HLA-B*15:17): 143 nM
Kd (HLA-B*57:01; [13]): 2480 nM
Kd (HLA-B*58:01; [13]): 17.7 nM

Sequence: IEVKTCIWPK
Kd (HLA-B*40:01 [6]; source organism: Dengue virus 1 Brazil/97-11/1997): 2910 nM

Sequence: REWCFTGERN
Kd (HLA-B*40:01 [6]; [8]): 502 nM

Sequence: RQTQSRPIQ
IC50 (HLA-A*24:02; [11]): ≥ 125000 nM

Sequence: WENVPYLGK
Kd (HLA-B*44:02 [2]; [14]): 8420 nM

Sequence: NLEEICQLI
IC50 (HLA-A*02:01 [1]; [11]): 65100 nM
IC50 (HLA-A*24:02; [11]): ≥ 90800 nM

Sequence: IEQMANGIAL
Kd (HLA-B*40:01 [6]; [14]): 2.57 nM

Sequence: LDKITDFHE
IC50 (HLA-A*24:02; source organism: Variola virus): 24200 nM

Kd (HLA-A*02:01 [5]; source organism: Homo sapiens): 72.1 nM
Kd (HLA-A*02:02): 73.5 nM
Sequence: KLEEEQIIL

Sequence: SISGVLWQV
Kd (HLA-A*02:01 [5]; source organism: Hepatitis C virus subtype 2b): 36 nM

Sequence: YNAELLVAL
Kd (HLA-B*39:01; source organism: Influenza A virus (A/gray teal/Australia/2/1979(H4N4))): 0.9 nM

Sequence: NGTLEFTPI
IC50 (HLA-A*02:01 [1]; [15]): 11100 nM
IC50 (HLA-A*24:02; [15]): 23100 nM

Sequence: LPWSSPQLW
Kd (HLA-B*51:01): 90.6 nM

Source: the Immune Epitope Database (IEDB)
